The values that follow come from patent US20190085081A1 (CANCER RESEARCH TECHNOLOGY, published 2019).

To fix the notation:
T1: murine CLEC14A-Fc (mouse, UniProt Q8VCP9 22-386, limits assumed)
T1 construct: Murine CLEC14A protein with a human Fc tag, made in HEK293T cells; also called CM; mCLEC14A-Fc; not shown: human Fc tag
T1 sequence (looked up): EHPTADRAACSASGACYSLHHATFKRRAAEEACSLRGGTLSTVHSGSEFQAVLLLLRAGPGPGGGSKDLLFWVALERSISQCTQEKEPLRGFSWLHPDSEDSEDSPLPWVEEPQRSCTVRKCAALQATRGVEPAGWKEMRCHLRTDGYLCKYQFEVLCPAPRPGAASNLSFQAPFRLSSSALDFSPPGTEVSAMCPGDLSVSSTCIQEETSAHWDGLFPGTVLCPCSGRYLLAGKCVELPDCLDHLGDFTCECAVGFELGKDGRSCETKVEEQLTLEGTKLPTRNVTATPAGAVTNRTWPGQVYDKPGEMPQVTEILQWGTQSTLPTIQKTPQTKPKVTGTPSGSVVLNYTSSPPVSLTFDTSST

T2: human CLEC14A-ECD-Fc (human, UniProt Q86T13 22-396)
T2 construct: also called CLEC14A-Fc; hCLEC14A-Fc; not shown: human Fc tag from the pcDNA3-Fc plasmid
T2 sequence: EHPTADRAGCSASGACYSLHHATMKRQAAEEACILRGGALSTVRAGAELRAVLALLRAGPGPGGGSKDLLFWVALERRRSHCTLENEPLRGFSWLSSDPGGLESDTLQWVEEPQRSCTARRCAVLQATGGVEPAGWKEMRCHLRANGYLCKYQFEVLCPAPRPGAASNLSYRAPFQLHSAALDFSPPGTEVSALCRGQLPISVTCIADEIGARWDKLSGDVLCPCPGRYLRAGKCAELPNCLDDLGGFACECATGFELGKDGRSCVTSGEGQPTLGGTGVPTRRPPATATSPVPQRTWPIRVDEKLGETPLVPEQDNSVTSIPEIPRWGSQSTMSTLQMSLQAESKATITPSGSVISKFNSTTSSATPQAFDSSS

T3: human CLEC14A, full length (human, UniProt Q86T13 22-490)
T3 construct: also called CLEC14A on HUVECs (endogenous); CHO cells expressing full length human CLEC14A
T3 sequence: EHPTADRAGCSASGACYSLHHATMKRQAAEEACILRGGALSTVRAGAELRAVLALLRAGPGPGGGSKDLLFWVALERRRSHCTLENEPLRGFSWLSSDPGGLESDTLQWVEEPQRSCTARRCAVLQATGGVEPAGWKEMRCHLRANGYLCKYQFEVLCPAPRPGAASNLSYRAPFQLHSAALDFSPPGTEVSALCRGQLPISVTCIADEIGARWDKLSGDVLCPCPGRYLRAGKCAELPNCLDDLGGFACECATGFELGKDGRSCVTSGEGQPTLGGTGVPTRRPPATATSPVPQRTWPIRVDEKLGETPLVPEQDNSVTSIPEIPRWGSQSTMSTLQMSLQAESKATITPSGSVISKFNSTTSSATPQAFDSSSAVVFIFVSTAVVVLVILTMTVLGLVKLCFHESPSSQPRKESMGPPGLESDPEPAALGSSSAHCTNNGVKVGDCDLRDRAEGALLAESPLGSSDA

T4: CLEC14A wild type with a C terminal GFP tag (human, UniProt Q86T13 22-490)
T4 construct: Expressed in HEK293T cells; GFP-positive cells gated; also called WT CLEC14A; not shown: C-terminal GFP tag
T4 sequence: T3 sequence

T5: MMRN2 overexpressed in HEK293T cells (human, UniProt Q9H8L6 23-949)
T5 construct: Used as cell lysate; also called full-length human MMRN2 with a His tag; hMMRN2; not shown: His tag (vector pHL-Avitag3)
T5 sequence: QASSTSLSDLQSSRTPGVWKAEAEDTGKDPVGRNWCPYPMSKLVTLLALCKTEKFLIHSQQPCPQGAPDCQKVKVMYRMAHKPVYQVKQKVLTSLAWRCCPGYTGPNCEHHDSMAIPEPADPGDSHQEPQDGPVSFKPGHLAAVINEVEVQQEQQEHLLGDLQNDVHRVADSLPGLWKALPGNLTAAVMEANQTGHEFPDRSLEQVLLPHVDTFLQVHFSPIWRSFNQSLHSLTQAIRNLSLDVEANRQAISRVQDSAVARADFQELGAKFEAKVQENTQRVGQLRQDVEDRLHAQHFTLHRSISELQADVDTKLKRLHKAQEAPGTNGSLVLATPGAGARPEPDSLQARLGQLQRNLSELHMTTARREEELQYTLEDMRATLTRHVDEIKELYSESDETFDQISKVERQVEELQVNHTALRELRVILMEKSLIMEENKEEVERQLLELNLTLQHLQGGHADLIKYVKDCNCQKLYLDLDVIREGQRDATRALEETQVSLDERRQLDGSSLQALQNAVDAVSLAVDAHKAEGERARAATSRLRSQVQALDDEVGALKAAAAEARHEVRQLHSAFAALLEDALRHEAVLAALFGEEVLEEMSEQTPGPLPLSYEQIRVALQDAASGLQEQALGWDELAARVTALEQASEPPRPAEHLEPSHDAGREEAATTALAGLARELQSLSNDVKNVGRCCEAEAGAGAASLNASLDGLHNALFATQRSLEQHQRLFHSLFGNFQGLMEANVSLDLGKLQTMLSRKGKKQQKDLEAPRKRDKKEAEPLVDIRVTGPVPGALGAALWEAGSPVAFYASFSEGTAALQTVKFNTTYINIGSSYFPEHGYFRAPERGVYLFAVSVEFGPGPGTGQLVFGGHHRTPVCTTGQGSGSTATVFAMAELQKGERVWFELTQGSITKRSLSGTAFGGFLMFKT

B1: CRT3 (antibody, IgG1, V domains shown)
VH: EVQLQQSGTVLARPGASVKMSCKASGYTFTSYWMHWVKQRPGQGLEWIGAIYPGNSDTSYNQKFKGKAKLTAVTSTSTAYMELSSLTNEDSAVFYCTHYYGSDYAMDYWGQGTSVTV
VL: QIVLTQSPAIMSASLGERVTMTCTASSSVSSSYLHWYQQKPGSSPKLWIYSTSNLASGVPARFSGSGSGTSYSLTISSMEAEDAATYYCHQYHRSPRTFGGGTKLEIKR
notes: The VL entry ends with AAA from the cloning site; also called C3
B2: CLEC14A with regions 97-108 of CD141 (receptor)
chain: not shown
notes: also called this mutant
B3: HA-CLEC14A (receptor)
chain: T3 sequence
notes: also called CLEC14A wild type (WT) with an N-terminal HA tag; not shown: N-terminal HA tag
B4: CRT1 (antibody, IgG1, V domains shown)
VH: EVQLQQSGAELMKPGASVKISCKATGYTFSSYWIEWVKQRPGHGLEWIGEILPGSGSTNYNEKFKGKATFTADTSSNTAYMQLSSLTSEDSAVYYCARGGDYDEEYYVMDYWGQGTSVTV
VL: QIVLTQSPAIMSASPGEKVTMTCSASSSVSYMYWYQQKPGSSPRLLIYDTSNLASGVPVRFSGSGSGTSYSLTISRMEAEDAATYYCQQWSSYPLTFGAGTKLELKR
notes: also called C1; CR1
B5: CRT4 (antibody, IgG1, V domains shown)
VH: QVQLQQSGAELMKPGASVKISCKATGYTFSSYWIEWVNRRPGHGLEWIGEILPGSGSTNYNEKFKGKATFTADTSSNTAYMQLSSLTSEDSAVYYCARGGDYDEEYYLMDYWGQGTTLTVSS
VL: B4 VL with L105I
notes: also called C4
B6: CRT5 (antibody, IgG1, V domains shown)
VH: AEVQLQQSGAELMKPGASVKISCKATGYTFSSYWIEWVNQRPGHGLEWIGEILPGSGSTNYNEKFKGKATFTADTSSNTAYMQLSSLTSEDSAVYYCARGGDYDEEYYAMDYWGQGTSVTL
VL: B4 VL with A82G
notes: also called C5

Positions count from the first letter of the chain named.

Assay [1] deals with T1, murine CLEC14A-Fc. Briefly: ELISA, hybridoma supernatant on absorbed antigen.
The target of assay [2] is T2, human CLEC14A-ECD-Fc. Briefly: pre-incubation of CLEC14A-ECD-Fc with antibody before MMRN2 pull-down. On the procedure:
Human CLEC14A-ECD-Fc was bound to protein A beads, blocked in 20% FCS and then incubated with each blocking condition. This was then added to lysates of HEK293T cells overexpressing full-length human MMRN2 with a His tag. Pre-incubating with CRT1, CRT4 and CRT5 decreased the levels of MMRN2 pulled down by CLEC14A-ECD-Fc.
To determine which CLEC14A monoclonal antibodies could inhibit the binding of MMRN2 to CLEC14A, CLEC14A-ECD-Fc was pre-incubated with increasing concentrations of mIgG1, or CR1-5, prior to incubation with lysates from HEK293T cells overexpressing MMRN2. Precipitates were then separated and probed for MMRN2 or CLEC14A-ECD-Fc. […] This confirms that antibodies C1, 4 and 5 bind CLEC14a on an epitope that is distinct from the one that C2 and 3 monoclonal antibodies bind and thus specifically block the MMRN2 interaction with CLEC14A.

The target in assay [3] is T6, Chimera 5.
T6 construct: GFP fusion; also called CLEC14A with CTLD of CD141; CTLD of thrombomodulin, rest CLEC14A
In words: flow cytometry, HEK293T Chimera 5 GFP, GFP-positive cells gated (R1). In general terms: In flow cytometry, cells or beads pass a laser one at a time.

Assay [4] addresses T7, wild type thrombomodulin with GFP tag (UniProt P07204 19-575).
T7 construct: whole, on cells; Expressed in HEK293T cells; also called WT CD141; CD141; not shown: C-terminal GFP tag
In words: flow cytometry, HEK293T Thrombomodulin CD141 WT GFP, GFP-positive cells gated (R1).

Assay [5] deals with T3, human CLEC14A, full length. In words: fluorescent imaging of HUVECs treated with the drug conjugate of CRT3, 0 and 90 minutes by the legend. On the procedure:
HUVECs were treated with CRT-3 ADC and fluorescent imaging was carried out to determine the localisation of CRT-3 after 0 and 90 minutes. Further, the cytotoxicity was measured using a Cell Titre Glo luminescent cell viability assay and the results are shown in FIG. 18B. As described above, 1 million Lewis lung carcinoma cells were injected subcutaneously into the right flank of 2 mice and allowed to grow to a visible size. 1 mg/kg of CRT-3-ADC or B12-ADC (control) was administered through tail vein injections.

For assay [6], the target named is T4, CLEC14A wild type with a C terminal GFP …. In words: flow cytometry, HEK293T CLEC14A WT GFP, GFP-positive cells gated (R1); filled histogram is the control (files named IgG).
Assay [7] concerns the target T8, Chimera 6.
T8 construct: GFP fusion; also called CLEC14A with SUSHI of CD141; Sushi of thrombomodulin
Briefly: flow cytometry, HEK293T Chimera 6 GFP, GFP-positive cells gated (R1); filled histogram is the control (files named IgG).

In assay [8] the target is T5, MMRN2 overexpressed in HEK293T cells. Briefly: method for MMRN2 not described.
The target is the same in assay [9]. In words: far Western blot of lysates of transfected HEK293T cells, probed with MMRN2 protein lysate. From the text:
HEK293T cells were mock transfected or transfected with pCS2 vectors containing CLEC14A wild type (WT) or constructs with each major domain deleted (Δ) with an N-terminal HA tag. Upon far western blotting with MMRN2 protein lysate, binding can be seen in all mutants except those missing the C-type lectin domain (CTLD) or the sushi domain. An anti-HA blot was included to show all mutant proteins were expressed.

For assay [10], the target named is B2. Briefly: flow cytometry, HEK293T 97-108 Chimera GFP, GFP-positive cells gated (R1).

T6 sequence (chain, as listed by the source mutant limits assumed): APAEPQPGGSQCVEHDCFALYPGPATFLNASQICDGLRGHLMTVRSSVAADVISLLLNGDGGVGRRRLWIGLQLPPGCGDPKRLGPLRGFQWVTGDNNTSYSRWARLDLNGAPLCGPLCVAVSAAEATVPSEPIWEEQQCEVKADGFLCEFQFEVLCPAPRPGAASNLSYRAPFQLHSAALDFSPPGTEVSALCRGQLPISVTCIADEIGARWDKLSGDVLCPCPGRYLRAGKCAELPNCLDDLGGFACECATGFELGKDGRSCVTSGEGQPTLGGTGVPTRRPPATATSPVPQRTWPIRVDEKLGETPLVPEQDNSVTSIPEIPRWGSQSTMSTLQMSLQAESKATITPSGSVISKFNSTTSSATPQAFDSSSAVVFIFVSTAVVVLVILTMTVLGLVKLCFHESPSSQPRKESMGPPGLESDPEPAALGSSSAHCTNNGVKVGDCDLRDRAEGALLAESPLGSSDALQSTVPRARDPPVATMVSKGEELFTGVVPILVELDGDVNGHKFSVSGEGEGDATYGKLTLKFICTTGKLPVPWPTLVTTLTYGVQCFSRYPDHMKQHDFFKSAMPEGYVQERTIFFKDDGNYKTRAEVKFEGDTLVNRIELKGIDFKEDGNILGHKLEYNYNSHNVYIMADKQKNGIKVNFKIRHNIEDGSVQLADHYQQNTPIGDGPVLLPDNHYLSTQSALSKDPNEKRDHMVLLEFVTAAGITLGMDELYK
T7 sequence (P07204 19-575): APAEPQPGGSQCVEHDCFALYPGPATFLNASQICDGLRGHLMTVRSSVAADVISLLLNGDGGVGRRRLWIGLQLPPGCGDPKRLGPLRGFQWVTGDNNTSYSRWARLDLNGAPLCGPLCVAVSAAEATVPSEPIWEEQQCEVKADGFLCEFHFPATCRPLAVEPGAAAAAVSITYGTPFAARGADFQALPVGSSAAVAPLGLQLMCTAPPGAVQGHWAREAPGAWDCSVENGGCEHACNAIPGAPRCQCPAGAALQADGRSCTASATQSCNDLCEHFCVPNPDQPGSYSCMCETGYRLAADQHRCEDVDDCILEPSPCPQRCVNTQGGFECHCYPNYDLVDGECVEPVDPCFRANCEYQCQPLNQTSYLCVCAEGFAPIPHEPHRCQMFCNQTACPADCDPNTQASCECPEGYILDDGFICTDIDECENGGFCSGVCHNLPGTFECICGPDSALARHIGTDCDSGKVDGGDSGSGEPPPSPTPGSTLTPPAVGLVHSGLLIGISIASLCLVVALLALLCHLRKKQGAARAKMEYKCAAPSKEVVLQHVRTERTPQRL

Consider B1, for which the binding result was “binds” in assay [1]; “binds” in assay [2]; “no binding” in assay [3]; “no binding” in assay [4]; “binds” in assay [5]; “binds” in assay [6]. Also, the binding result in assay [7] was “binds”.
In the case of B2, the binding result in assay [8] was “no binding”.
Consider B3, for which the binding result in assay [9] is recorded as “binds”.
For the molecule B4, the binding result in assay [1] is reported as “binds”; in [2] it was “binds”; in [3], “no binding”; in [10], “no binding”; in assay [4] it was “no binding”; in assay [6], “binds”. Besides, in assay [7], the binding result is “binds”.
With B5, the binding result in [3], in [10] and in assay [4] was “no binding” each time.
In the case of B6, the binding result in assay [3], in [10] and in assay [4] was “no binding” each time.
